The values that follow come from CN107043422A (CHENGDU KANGHONG BIOLOGICAL TECH CO LTD, dated 2017).

Experiment [1] deals with T1, 大鼠血清中的补体因子D (rat serum complement factor D) (大鼠 (rat), UniProt P32038 26-263).
T1 sequence (looked up): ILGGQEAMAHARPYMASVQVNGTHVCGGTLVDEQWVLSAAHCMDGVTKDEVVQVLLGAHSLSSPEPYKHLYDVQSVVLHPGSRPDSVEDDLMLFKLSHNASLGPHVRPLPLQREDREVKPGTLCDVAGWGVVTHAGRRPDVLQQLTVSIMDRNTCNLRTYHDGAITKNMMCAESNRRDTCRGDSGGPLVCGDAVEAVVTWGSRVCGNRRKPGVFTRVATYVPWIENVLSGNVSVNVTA
In words: cell-based or functional assay.

A further experiment addresses T2, 人CFD蛋白 (人 (human), UniProt P00746 26-253, limits assumed).
T2 construct: also called human complement factor D
The experiment is described as follows: BLI (Octet QK), human CFD on Ni-NTA biosensor, KH-A at 125 nM in rabbit vitreous fluid.

For experiment [2], the target named is T3, 猪CFD (猪 (pig), UniProt P51779 27-259, limits assumed).
T3 construct: Transiently expressed in DG44 cells; The culture supernatant was used unpurified in the Octet assay; also called pig CFD; 猪(GeneID:396877)
T3 sequence (P51779 other isoform, or with tags, fused parts or gaps limits assumed): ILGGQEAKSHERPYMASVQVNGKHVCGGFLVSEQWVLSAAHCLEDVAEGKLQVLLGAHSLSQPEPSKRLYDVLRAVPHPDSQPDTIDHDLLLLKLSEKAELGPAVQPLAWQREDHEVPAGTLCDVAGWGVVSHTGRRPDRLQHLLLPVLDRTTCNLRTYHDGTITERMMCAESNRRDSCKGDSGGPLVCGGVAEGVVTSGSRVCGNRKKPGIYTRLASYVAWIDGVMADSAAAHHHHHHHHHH
In words: BLI (Octet QK), antibody on Protein A biosensor, CFD transfection supernatant in solution.

In experiment [3] the target is T3, 猪CFD. The experiment is described as follows: BLI (Octet QK), His-tagged CFD supernatant on Ni-NTA biosensor, Fab at 10 μg/ml.

Positions count from the first letter of the chain named.

T2 sequence (P00746 26-253 limits assumed): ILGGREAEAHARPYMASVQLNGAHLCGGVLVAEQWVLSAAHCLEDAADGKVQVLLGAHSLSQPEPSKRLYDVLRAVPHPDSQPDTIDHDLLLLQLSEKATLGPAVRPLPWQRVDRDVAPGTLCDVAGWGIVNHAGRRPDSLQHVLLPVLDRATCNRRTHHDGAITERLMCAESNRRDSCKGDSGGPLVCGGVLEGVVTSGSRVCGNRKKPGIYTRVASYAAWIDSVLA

B1: KH-A (antibody, human IgG4 S228P, kappa, V domains shown)
VH: QVQLVQSGPELKKPGASVKVSCKASGYTFTNYGMNWVRQAPGQGLEWMGWINTYTGETTYADDFKGRFVFSLDTSVSTAYLQISSLKAEDTAVYYCEREGGVNYWGQGTLVTVSS
VL: DIQVTQSPSSLSASVGDRVTITCITSTDIDDDMNWYQQKPGKVPKLLISGGATLRPGVPSRFSGSGSGTDFTLTISSLQPEDVATYYCLQSDSLPYTFGQGTKLEIKR
notes: Full-length humanized anti-complement factor D antibody expressed in CHO-S cells; also called 抗体KH-A; 全长抗体KH-A
In the case of B1, the “IC50, 全长抗体抑制大鼠血清致兔红细胞溶血 (ACH50法, 补体旁路途径活性)” value in experiment [1] came to 3860 µg/mL. Further, the binding result in the experiment with 人CFD蛋白 and with 猪CFD [2] was “binds” in each case.

B2: KH021 (Fab, V domains shown)
VH: B1 VH with Y104S
VL: B1 VL with M33V, A52N, L89M
notes: Fab expressed in the E. coli periplasm; also called Fab抗体KH021
Consider B2, for which the binding result with 猪CFD [3] is given as “binds”.

B3: KH-F (antibody, human IgG4 S228P, kappa, V domains shown)
VH: B1 VH with Y104S
VL: B1 VL with M33V, A52N, L89M
notes: also called 全长抗体KH-F
As for B3, the “IC50, 全长抗体抑制大鼠血清致兔红细胞溶血 (ACH50法, 补体旁路途径活性)” value in experiment [1] worked out at 3960 µg/mL. Also, the binding result with 猪CFD [2] is “binds”.

B4: KH027 (Fab, V domains shown)
VH: B1 VH
VL: B1 VL
notes: Fab expressed in the E. coli periplasm; also called Fab抗体KH027
B4: in the experiment with 猪CFD [3], the binding result is reported as “binds”.
